Reference: paper PMC4388676 (PLoS ONE, 2015)
Entries after “also recorded” stand apart in the source; their conditions may differ. Bridge positions count the residues as written; N and C are the ends. Square brackets hold non-standard residues; d marks the D form. Ends that are not written are not given here. Peptide text beside a SMILES is read from it. * marks the point of attachment. FITC = O=C1OC2(c3ccc(O)cc3Oc3cc(O)ccc32)c2ccc(NC(=S)*)cc21; S5 = C=CCCC[C@](C)(N)C(=O)O

Experiments:
[1] = Serum stability followed by LC-MS; format: in vitro ADME; conditions: 25% human serum, 37°C, peptide 0.3 μM, time points 0, 60, 120, 180, 360 and 900 min, TFA precipitation, LC-MS read-out, triplicate
Method: Human serum (Sigma Aldrich-Italy) was centrifuged at 13000 rpm for 10 min to remove lipids;the supernatant was collected and incubated at 37°C for at least 15 min. The assay started upon the addition of the peptides to the 25% serum for a final peptide concentration of 0.3 μM.
200 μL aliquots of the samples were taken after the following time points: 0, 60, 120, 180, 360 and 900 min. The aliquots were mixed with 100 μL of 15% TFA and incubated at 4°C for at least 15 min to induce the precipitation of the serum proteins. The supernatants were collected for each sample after centrifugation at 13000 rpm for 10 min and stored at -20°C.
The serum stability of peptides was followed by LC-MS analysis. using a Phenomenex Jupiter C4 (150 × 2 mm; 5 μm; 300 Å) and a method consisting of an isocratic step with H2O (0.1% TFA)/CH3CN (0.1% TFA) (70:30) for 10 min and a linear gradient of H2O (0.1% TFA)/CH3CN (0.1% TFA) from 30 to 80% of CH3CN (0.1% TFA) in 20 min at flow rate of 200 μL/min.
The assays were performed in triplicate.

[2] = Human serum (Sigma Aldrich-Italy), 25% serum; conditions: 37°C, up to 900 min
KCTD11^BTB = target: T1, KCTD11^BTB (Homo sapiens, UniProt Q693B1); experiment: ELISA binding of biotinylated peptides to His-TrxA-KCTD11^BTB; conditions: 0.8 μM biotinylated peptide on streptavidin-coated wells; His-TrxA-KCTD11^BTB 0.4-15.6 μM in PBS; anti-His/HRP read at 490 nm; mean of triplicate experiments
T1 construct: tetrameric BTB domain of KCTD11^BTB (residues 15–116) was generated; thioredoxin A (TrxA); made in house
T1 sequence (Q693B1 15-116 isoform Q693B1-2): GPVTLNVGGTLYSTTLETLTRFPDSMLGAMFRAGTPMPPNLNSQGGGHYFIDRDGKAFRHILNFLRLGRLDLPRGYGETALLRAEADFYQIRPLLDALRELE
Method: For ELISA assays, 5 μg/mL streptavidin in phosphate/citrate buffer pH 5.0 was incubated overnight at 37°C for coating. Firstly, wells were coated with 0.8 μM biotinylated Cul3^49-68 peptides in phosphate buffered saline (PBS) 1X for 1 h at room temperature. Binding step was performed with increasing concentrations (0.4, 0.75, 1.5, 3.8, 7.6 and 15.6 μM) of His-TrxA- KCTD11^BTB in PBS 1X. His-TrxA was used as negative control in the same concentrations. As blocking solution 3% gelatine, 0.05% Tween-20 in PBS 1X was used for 1 h at 37°C. Washes were executed with PBS 1X. To reveal the occurred interaction mouse anti-His monoclonal antibody was incubated in 1:1000 dilution at room temperature for 2 h; then, horseradish peroxidase-conjugated anti-mouse antibody (Pierce) was diluted 1:10000 in 1% gelatin, PBS 1X and incubated at 20°C for 1 h. The colorimetric reaction has been carried out with SIGMAFAST OPD reagent (Sigma Aldrich), according to the manufacturer’s instructions. Finally, a Model 680 Microplate Reader (Bio-Rad, Hercules, CA-USA) has been used for readings at 490 nm; data were processed by a Microplate Manager 5.2 program. The reported data are mean values of triplicate experiments.

His-TrxA-KCTD11^BTB = target: T2, His-TrxA-KCTD11^BTB (UniProt Q693B1-2 15-116); experiment: fluorescence polarisation; 2 uM FITC-peptide, KCTD11^BTB added at increasing concentration (0.1-15 uM in the methods; 0.1 nM to 20 uM in the legend); KCTD11^BTB concentration as monomer; triplicates; conditions: both partners purified
T2 construct: KCTD11, folded BTB region of the long form (isoform 2, UniProt Q693B1-2); residues 15-116 are stated for KCTD11^BTB in the modelling paragraph; numbers count on: the long form (isoform 2); The tags are named and used for detection in the ELISA; also called recombinant KCTD11^BTB; BTB of the tetrameric KCTD11; source: recombinant fusion protein with thioredoxin A, expressed and purified as …
T2 sequence (looked up): T1 sequence (Q693B1 15-116 isoform Q693B1-2)

KCTD5^BTB = target: T3, KCTD5^BTB (UniProt Q9NXV2 44-145); experiment: fluorescence polarisation; 1 uM FITC-Cul3^49-68LA, KCTD5^BTB over 0.1 nM to 5 uM; triplicates; conditions: both partners purified
T3 construct: KCTD5, folded BTB domain, residues 44-145; also called BTB of the pentameric KCTD5; pentameric KCTD5^BTB; source: recombinant from the pET28/KCTD5^BTB plasmid, expressed and purified as elsewhere reported [33, 34]
T3 sequence (Q9NXV2 44-145): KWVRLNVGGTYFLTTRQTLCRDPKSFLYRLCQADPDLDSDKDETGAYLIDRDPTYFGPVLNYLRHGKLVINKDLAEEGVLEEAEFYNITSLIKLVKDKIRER

CSCC[C@H](NC(=O)[C@@H](NC(=O)[C@H](Cc1ccc(O)cc1)NC(=O)[C@H](C)NC(=O)[C@H](CC(N)=O)NC(=O)[C@H](CCCNC(=N)N)NC(=O)[C@H](Cc1ccc(O)cc1)NC(=O)[C@]1(C)CCCC=CCCC[C@](C)(NC(=O)[C@H](CC(C)C)NC(=O)CNC(=O)[C@H](CO)NC(=O)[C@H](CC(N)=O)NC(C)=O)C(=O)N[C@@H](Cc2ccccc2)C(=O)N[C@@H](CCC(=O)O)C(=O)N[C@@H](CCC(=O)O)C(=O)N1)[C@@H](C)O)C(=O)N[C@H](C(=O)N[C@@H](CC(C)C)C(=O)N[C@@H](Cc1c[nH]cn1)C(=O)N[C@@H](CCCCN)C(N)=O)C(C)C [Cul3^49-68SL] (Ac-NSGL[S5]FEE[S5]YRNAYTMVLHK-NH2; staple 5-9)
Estimate t1/2 in serum [1]: ~7 h

Ac-NSGLSFEELYRNAYTMVLHK-NH2
cleaved bond [2]: Tyr58-Arg59, major | fragment found [2]: NAYTMVLHK-NH 2; also recorded: Ac-NSGLSFEELYR

Ac-NSGLSFEELYRNAYTMVLHK-NH2 [Cul3^49-68]
half-life at 0.3 μM ([1]; read-out: Estimate t1/2 in serum (converted)): 7 h

Cul3^49-68AA: non-stapled variant of Cul3^49-68 in which Tyr58 and Tyr62 were replaced with Ala residues (NSGLSFEELARNAATMVLHK-NH2; not fully specified (N-terminus))
Binding to recombinant KCTD11^BTB, qualitatively checked by ELISA (KCTD11^BTB): No relevant binding; also recorded: completely unable to bind KCTD11^BTB

{FITC}-NSGLSFE[S5]LYR[S5]AYTMVLHK-NH2 (staple 8-12) [FITC-Cul3^49-68EN]
Kd (His-TrxA-KCTD11^BTB): 620 nM

{FITC}-NSGLSFEE[S5]YRN[S5]YTMVLHK-NH2 (staple 9-13) [FITC-Cul3^49-68LA]
Kd (KCTD5^BTB): 97 nM | Kd (His-TrxA-KCTD11^BTB): 305 nM

B1: FITC-Cul3^49-68 (peptide)
peptide: {FITC}-NSGLSFEELYRNAYTMVLHK-NH2
notes: Cullin 3 (Cul3), first part of the peptide 49-68; Cullin 3 (Cul3), second part of the peptide 49-68; also called wild-type peptide; source: synthetic peptide (solid phase, Fmoc), RP-HPLC purified
Kd (His-TrxA-KCTD11^BTB): 497 nM
